From patent US8716221B2, “Modified exendins and uses thereof” (priority 2005, dated 2014)
Read-outs that look alike come from different tables or passages of the source. Where no end group is shown, it is not given here. [ ]: non-standard residue; d: D form. code ∗ = not defined here

Assays:
[1] = type: physicochemical; settings: for 0 day Purity (%) / 5 days Purity (%) / 5 days Relative Purity (%) / 10 days Purity (%) / 10 days Relative Purity (%) / 15 days Purity (%) / 15 days Relative Purity (%): pH 4.5, 40° C.; for 5 days Relative Purity (%) / 10 days Relative Purity (%) / 15 days Relative Purity (%): compared with the corresponding sample at 0 day
Experimental: (§1) 1 mg of each sample was dissolved in a buffer solution, which contains 150 mM sodium chloride and 20 mM phosphate, from which a solution of concentration of 4 mg/ml was prepared and its pH is 8.0. The testing sample solutions were placed in a thermostat of 40° C. LC-MS was used to determine the purity of polypeptide. Correlation between the reduction ratio of the main peak area and time reflects the chemical stability of the polypeptide. Expressed as a percentage, purity is the percentage corresponding to the target peak in the total of all peaks including impurities. Using LC, the main peak was separated from any impurities, and the relative percentages of main peak and impurities at times 0 (before incubation at 40° C. at pH 4.5-8) and after 5, 10 and 15 days were determined. MS was used to identify the main peak as the target molecule. The main peak area plus the peak areas of any impurities gives a total equal to 100%, with relative purity calculated at a certain time (5, 10 or 15 days) against the purity at time 0 compared to the purity before incubation at 40° C. at pH 4.5-8.
(§2) The following method was used to determine the chemical stability of various modified exendins having a sequence identity of at least 90% to SEQ ID no. 17 under acidic/basic conditions. […] Purity was determined by LC-MS as percentage of the target peak in the total of all peaks including impurities as described in example 3.
4 mg Exendin-4 derivative polypeptide (described in Table 2 below) was dissolved in 20 mM sodium buffer (pH 4.5) so as to prepare a solution at concentration of 4 mg/ml. The testing sample solutions were placed in a thermostat setting at 40° C. LC-MS was used to determine the purity of polypeptide. The chemical stability of the polypeptide was expressed as the correlation between the reduction ratio of the main peak area and time and determined as described above.

[2] = Stability of Exendin-4 derivatives under basic conditions (PBS pH 7.4, 40° C., LC-MS purity); type: physicochemical; settings: for 5 days Relative Purity (%) / 10 days Relative Purity (%): compared with the corresponding sample at 0 day
Experimental: as §1, §2
4 mg Exendin-4 derivative polypeptide (described in Table 3 above) was taken and dissolved in PBS buffer (KH2PO4 0.27 g/L, Na2HPO4 1.42 g/L, NaCl 8 g/L and KCl 0.2 g/L, pH 7.4) so as to prepare a solution at concentration of 4 mg/ml. The testing sample solutions were placed in a thermostat setting at 40° C. LC-MS was used to determine the purity of polypeptide. The chemical stability of the polypeptide was expressed as the correlation between the reduction ratio of the main peak area and time.

[3] = Test for the stability of the polypeptide (LC-MS purity, pH 8.0, 40° C.); type: physicochemical; settings: for Purity (%) 0 day: 4 mg/ml
Experimental: The following method was used to determine the chemical stability of some polypeptides in the present invention.
as §1

[4] = test system: normal mice; assay: Oral glucose tolerance test in normal mice after subcutaneous injection; type: in vivo; settings: unit not given
Source text: Polypeptide of SEQ ID NO: 25 was modified with polyethylene glycol of molecular weight of about 40,000 (sample 4 as described in Examples 3 and 4 above).

[5] = first day after s.c. injection, dosage (20)
[6] = first day after s.c. injection, dosage (80)
[7] = third day after s.c. injection, dosage (20)
[8] = third day after s.c. injection, dosage (80)

HGEGTFTSDLSKQMEEEAVRLFIEWLKQGGPSSGAPPPK* [Sample 5]
0 day Purity (%) [1]: 98.3% | 5 days Purity (%) [1]: 96.3% | 5 days Relative Purity (%) [1]: 97.97% | 10 days Purity (%) [1]: 95.1% | 10 days Relative Purity (%) [1]: 96.74% | 15 days Purity (%) [1]: 94.1% | 15 days Relative Purity (%) [1]: 95.73% | 0 day Purity (%) [2]: 98.3% | 5 days Purity (%) [2]: 95.7% | 5 days Relative Purity (%) [2]: 97.36% | 10 days Purity (%) [2]: 94.2% | 10 days Relative Purity (%) [2]: 95.83%

HdAEGTFTSDL SKQMEEEAVR LFIEWLKNGG PSSGAPPPC-NH2 [Sample 2-1]
stability of the polypeptide (conclusion in words) [3]: not very stable | Purity (%) 0 day [3]: 98% | Purity (%) 5th day [3]: 93.1% | Purity (%) 10th day [3]: 90.4% | Purity (%) 15th day [3]: 88.2% | 0 day Purity (%) [1]: 98.0% | 5 days Purity (%) [1]: 93.8% | 5 days Relative Purity (%) [1]: 95.71% | 10 days Purity (%) [1]: 89.6% | 10 days Relative Purity (%) [1]: 91.43% | 15 days Purity (%) [1]: 86.7% | 15 days Relative Purity (%) [1]: 88.47% | main impurity ([1]; stability test, cysteine at C-terminal end): dimers formed by oxidization of the mercapto-groups

HdAEGTFTSDL SKQMEEEAVR LFIEWLKNGG PSSGAPPPC-PEG40K [Sample 4]
stability of the polypeptide (conclusion in words) [3]: very stable | Purity (%) 0 day [3]: 99.7% | Purity (%) 5th day [3]: 99.4% | Purity (%) 10th day [3]: 99.0% | Purity (%) 15th day [3]: 99.3% | stability compared with samples 2-1 and 9-1 [1]: even higher stability | 0 day Purity (%) [1]: 99.7% | 5 days Purity (%) [1]: 99.4% | 5 days Relative Purity (%) [1]: 99.70% | 10 days Purity (%) [1]: 99.3% | 10 days Relative Purity (%) [1]: 99.60% | 15 days Purity (%) [1]: 99.0% | 15 days Relative Purity (%) [1]: 99.30% | 0 day Purity (%) [2]: 99.7% | 5 days Purity (%) [2]: 99.0% | 5 days Relative Purity (%) [2]: 99.30% | 10 days Purity (%) [2]: 98.2% | 10 days Relative Purity (%) [2]: 98.50% | AUC (area under the curve of the blood glucose level) [4, 5]: 176.4 ± 22.0 mg·h/dL | Blood Glucose level 0 min [4, 5]: 116.6 ± 10.8 mg/dL | Blood Glucose level 30 min [4, 5]: 95.7 ± 9.9 mg/dL | Blood Glucose level 60 min [4, 5]: 88.9 ± 28.6 mg/dL | Blood Glucose level 120 min [4, 5]: 65.4 ± 5.1 mg/dL | AUC (area under the curve of the blood glucose level) [4, 6]: 166.6 ± 16.7 mg·h/dL | Blood Glucose level 0 min [4, 6]: 122.2 ± 9.1 mg/dL | Blood Glucose level 30 min [4, 6]: 92.1 ± 12.4 mg/dL | Blood Glucose level 60 min [4, 6]: 76.7 ± 8.7 mg/dL | Blood Glucose level 120 min [4, 6]: 64.9 ± 7.5 mg/dL | AUC (area under the curve of the blood glucose level) [4, 7]: 253.6 ± 24.4 mg·h/dL | Blood Glucose level 0 min [4, 7]: 96.2 ± 8.6 mg/dL | Blood Glucose level 30 min [4, 7]: 172.8 ± 33.2 mg/dL | Blood Glucose level 60 min [4, 7]: 132.1 ± 12.4 mg/dL | Blood Glucose level 120 min [4, 7]: 88.3 ± 7.8 mg/dL | AUC (area under the curve of the blood glucose level) [4, 8]: 217.0 ± 21.9 mg·h/dL | Blood Glucose level 0 min [4, 8]: 89.5 ± 9.3 mg/dL | Blood Glucose level 30 min [4, 8]: 149.3 ± 32.4 mg/dL | Blood Glucose level 60 min [4, 8]: 108.6 ± 8.8 mg/dL | Blood Glucose level 120 min [4, 8]: 77.1 ± 8.4 mg/dL

HdAEGTFTSDL SKQMEEEAVR LFIEWLVKGG PSSGAPPPK* (H[dA]EGTFTSDLSKQMEEEAVRLFIEWLVKGGPSSGAPPPK(code ∗); reading uncertain; also: C-terminal modification (*)) [Sample 11]
0 day Purity (%) [1]: 98.3% | 5 days Purity (%) [1]: 96.7% | 5 days Relative Purity (%) [1]: 98.37% | 10 days Purity (%) [1]: 95.9% | 10 days Relative Purity (%) [1]: 97.56% | 15 days Purity (%) [1]: 94.8% | 15 days Relative Purity (%) [1]: 96.44% | 0 day Purity (%) [2]: 98.3% | 5 days Purity (%) [2]: 97.1% | 5 days Relative Purity (%) [2]: 98.78% | 10 days Purity (%) [2]: 96.4% | 10 days Relative Purity (%) [2]: 98.07%

HdAEGTFTSDL SKQNleEEEAVR LFIEWLKQGG PSSGAPPPS-NH2 [Sample 3]
Purity (%) 0 day [3]: 98.9% | Purity (%) 5th day [3]: 98.8% | Purity (%) 10th day [3]: 98.8% | Purity (%) 15th day [3]: 98.8% | 0 day Purity (%) [1]: 98.9% | 5 days Purity (%) [1]: 98.7% | 5 days Relative Purity (%) [1]: 99.80% | 10 days Purity (%) [1]: 98.7% | 10 days Relative Purity (%) [1]: 99.80% | 15 days Purity (%) [1]: 98.6% | 15 days Relative Purity (%) [1]: 99.70% | 0 day Purity (%) [2]: 98.9% | 5 days Purity (%) [2]: 98.6% | 5 days Relative Purity (%) [2]: 99.70% | 10 days Purity (%) [2]: 98.5% | 10 days Relative Purity (%) [2]: 99.60%

HdAEGTFTTSDL SKQNleEEEAVR LFIEWLKQGG PSSGAPPPC(AM) [Sample 9-2]
0 day Purity (%) [1]: 99.0% | 5 days Purity (%) [1]: 98.9% | 5 days Relative Purity (%) [1]: 99.90% | 10 days Purity (%) [1]: 98.8% | 10 days Relative Purity (%) [1]: 99.80% | 15 days Purity (%) [1]: 98.8% | 15 days Relative Purity (%) [1]: 99.80% | 0 day Purity (%) [2]: 99.0% | 5 days Purity (%) [2]: 98.8% | 5 days Relative Purity (%) [2]: 99.80% | 10 days Purity (%) [2]: 98.7% | 10 days Relative Purity (%) [2]: 99.70%

HdAEGTFTTSDL SKQNleEEEAVR LFIEWLKQGG PSSGAPPPC-PEG40K [Sample 13]
stability compared with samples 2-1 and 9-1 [1]: even higher stability | 0 day Purity (%) [1]: 99.8% | 5 days Purity (%) [1]: 99.6% | 5 days Relative Purity (%) [1]: 99.80% | 10 days Purity (%) [1]: 99.7% | 10 days Relative Purity (%) [1]: 99.90% | 15 days Purity (%) [1]: 99.5% | 15 days Relative Purity (%) [1]: 99.70% | 0 day Purity (%) [2]: 99.8% | 5 days Purity (%) [2]: 99.3% | 5 days Relative Purity (%) [2]: 99.50% | 10 days Purity (%) [2]: 98.9% | 10 days Relative Purity (%) [2]: 99.10%
